Entries after “also recorded” stand apart in the source; their conditions may differ.
Tests used:
Assay type in all cases: cell-based, mice
ERK kinase [1] = experiment: H2O2 induced ERK kinase activation in cultured Schwann cells / SGCs (immunoblot, p-ERK); details: opg −/− Schwann cells; pre-treatment 3 hours and co-treatment; OPG 100 ng/L, PD 98059 20 nM, zoledronate 10 μM; 500 μM H2O2
[2] = test system: spiral ganglion cells (SGCs) / Schwann cells; experiment: H2O2 induced oxidative cell death of cultured spiral ganglion cells (nuclear condensation, Hoechst 33342); details: for H2O2 induced oxidative cell death: opg −/− SGCs/Schwann cells, pretreatment followed by co-treatment, OPG 100 ng/L, PD 98059 20 nM, zoledronate 10 μM, 500 μM H2O2
Schwann cells = experiment: TRAIL induced cell death (cleaved caspase 3) in cultured Schwann cells; details: for TRAIL induced cleaved caspase 3 (cell death): opg −/− Schwann cells, pretreatment, TRAIL 100 ng/ml, OPG 100 ng/l, PD98059 20 nM, zoledronate 10 μM
ERK kinase [3] = experiment: TRAIL induced ERK phosphorylation in cultured Schwann cells (immunoblot); details: for TRAIL induced ERK phosphorylation / ERK activation: opg −/− Schwann cells, pretreatment, TRAIL 100 ng/ml, OPG 100 ng/l, PD98059 20 nM, zoledronate 10 μM
opg −/− spheres [4] = experiment: Proliferation of floating spiral ganglion spheres (BrdU staining); details: third generation opg −/− spheres, Rankl 100 ng/ml, OPG 100 ng/ml, zoledronate 1 μM, 3 days, passaged
Protocol: For each experiment, spiral ganglia of four to six 1-3 day old WT or opg −/− mice were dissected in HBSS. The SGCs (neurons and glia) were dissociated using trypsin (0.25%) for 13 min in PBS at 37° C. The enzymatic digestion was stopped by adding 10% FBS in DMEM-high glucose medium. The tissue was washed twice and gently triturated. The cell suspension was passed through a 70 μm cell strainer (BD Labware). Single cells were cultured in DMEM-high glucose and F12 (mixed 1:1) supplemented with N2 and B27 (Invitrogen), EGF (20 ng/mL; Chemicon), bFGF (10 ng/mL; Chemicon), IGF-1 (50 ng/mL; Chemicon), and heparan sulfate (50 ng/mL; Sigma). Newly formed spheres were cultured in ultra-low-cluster plates (Costar) for 4 days and were termed first generation spheres. Spheres were subsequently passaged every 4 days until the third generation, when 5-10 spheres were collected and dissociated (Oshima K, Grimm C M, Corrales C E, Senn P, Martinez Monedero R, Géléoc GS, Edge A, Holt J R, Heller S. 2007. J Assoc Res Otolaryngol. 2007; 8:18-31). Spheres were passaged at a clonal level for 3 more times. Before each passage, the sphere morphology was assessed and the spheres were counted using the Metamorph counting software. At the third generation, spiral ganglion spheres from WT and opg −/− mice were separated into 4 groups and treated with Rankl (100 ng/ml), OPG (100 ng/ml) or zoledronate (1 μM). […]

opg −/− spheres [5] = experiment: Apoptosis in floating spiral ganglion spheres (cleaved caspase 3 staining); details: third generation opg −/− spheres, Rankl 100 ng/ml, OPG 100 ng/ml, zoledronate 1 μM, 3 days, passaged
Protocol: For each experiment, spiral ganglia of four to six 1-3 day old WT or opg −/− mice were dissected in HBSS. The SGCs (neurons and glia) were dissociated using trypsin (0.25%) for 13 min in PBS at 37° C. The enzymatic digestion was stopped by adding 10% FBS in DMEM-high glucose medium. The tissue was washed twice and gently triturated. The cell suspension was passed through a 70 μm cell strainer (BD Labware). Single cells were cultured in DMEM-high glucose and F12 (mixed 1:1) supplemented with N2 and B27 (Invitrogen), EGF (20 ng/mL; Chemicon), bFGF (10 ng/mL; Chemicon), IGF-1 (50 ng/mL; Chemicon), and heparan sulfate (50 ng/mL; Sigma). Newly formed spheres were cultured in ultra-low-cluster plates (Costar) for 4 days and were termed first generation spheres. Spheres were subsequently passaged every 4 days until the third generation, when 5-10 spheres were collected and dissociated (Oshima K, Grimm C M, Corrales C E, Senn P, Martinez Monedero R, Géléoc GS, Edge A, Holt J R, Heller S. 2007. J Assoc Res Otolaryngol. 2007; 8:18-31). Spheres were passaged at a clonal level for 3 more times. Before each passage, the sphere morphology was assessed and the spheres were counted using the Metamorph counting software. At the third generation, spiral ganglion spheres from WT and opg −/− mice were separated into 4 groups and treated with Rankl (100 ng/ml), OPG (100 ng/ml) or zoledronate (1 μM). The control group was untreated. After 3 days of treatment, the spheres were passaged and treated again for 3 days. Twelve hours before plating, proliferating cells in the spheres were labeled with BrdU (3 μg/ml). After 12 hours, the spheres were plated for 1 hour on poly-L-lysine (0.01%, Cultrex)-coated glass coverslips (Marienfeld GmbH, Germany), fixed in 4% paraformaldehyde for 10 min, treated with 1N HCl for antigen retrieval for BrdU staining, incubated for 1 hour in blocking solution (0.3% Triton, 15% goat serum in 1×PBS), and incubated overnight with either anti-cleaved caspase3 antibody to assess cell death, or anti-BrdU antibody to assess cell proliferation. After 3 washing steps with 1×PBS, the spheres were incubated in secondary antibody for 2 hours (568 Alexa Fluor anti rat or anti mouse). Nuclei were stained with DAPI. Staining was visualized by epifluorescence microscopy (Axioskop 2 Mot Axiocam, Zeiss). Counting was done with the Metamorph software.

p38, JNK or NF-κB p65 = experiment: p38, JNK and NF-κB p65 activity after TRAIL in cultured Schwann cells (immunoblot); details: opg −/− Schwann cells treated with TRAIL

Question: Which “H2O2 induced ERK kinase activation” value (ERK kinase [1]) does the source give for `COc1cccc(-c2cc(=O)c3ccccc3o2)c1N` [PD 98059, reference compound] here?
Answer: Its value is “suppressed”.

Question: What about the “H2O2 induced oxidative cell death” value [2] of the same molecule?
Answer: The value was “rescued”.

Question: And the “TRAIL induced cleaved caspase 3 (cell death)” value (Schwann cells)?
Answer: Its value is “suppressed”.

Question: And the “TRAIL induced ERK phosphorylation / ERK activation” value (ERK kinase [3])?
Answer: Its value is “suppressed”.

Question: With `O=P(O)(O)C(O)(Cn1ccnc1)P(=O)(O)O` [zoledronate, reference compound] as the molecule, how does the “H2O2 induced ERK kinase activation” value (ERK kinase [1]) read?
Answer: Its value is “suppressed”.

Question: What about the “H2O2 induced oxidative cell death” value [2] of the same molecule?
Answer: The value was “rescued”.

Question: What about the “TRAIL induced cleaved caspase 3 (cell death)” value (Schwann cells) of the same molecule?
Answer: The value was “suppressed”.

Question: And the “TRAIL induced ERK phosphorylation / ERK activation” value (ERK kinase [3])?
Answer: The value was “suppressed”.

Question: And the “proliferation of opg−/− spheres (number of BrdU positive cells)” value (opg −/− spheres [4])?
Answer: Its value is “significantly enhanced; also recorded: increased”.

Question: And the “apoptosis in opg−/− spheres (number of cleaved caspase 3 positive cells)” value (shortened to “apoptosis in opg−/− spheres”) (opg −/− spheres [5])?
Answer: The value was “reduced; also recorded: decreased”.

B1: OPG: Osteoprotegerin, cytokine receptor of the TNF receptor superfamily; recombinant protein from R & D Systems (protein)
chain: MNNLLCCALVFLDISIKWTTQETFPPKYLHYDEETSHQLLCDKCPPGTYLKQHCTAKWKTVCAPCPDHYYTDSWHTSDECLYCSPVCKELQYVKQECNRTHNRVCECKEGRYLEIEFCLKHRSCPPGFGVVQAGTPERNTVCKRCPDGFFSNETSSKAPCRKHTNCSVFGLLLTQKGNATHDNICSGNSESTQKCGIDVTLCEEAFFRFAVPTKFTPNWLSVLVDNLPGTKVNAESVERIKRQHSSQEQTFQLLKLWKHQNKDQDIVKKIIQDIDLCENSVQRHIGHANLTFEQLRSLMESLPGKKVGAEDIEKTIKACKPSDQILKLLSLWRIKNGDQDTLKGLMHALKHSKTYHFPKTVTQSLKKTIRFLHSFTMYKLYQKLFLEMIGNQVQSVKISCL
modifications: homo sapiens OPG
notes: Osteoprotegerin, cytokine receptor of the TNF receptor superfamily; recombinant protein from R & D Systems
Question: For B1, which “H2O2 induced ERK kinase activation” value (ERK kinase [1]) is on record?
Answer: Its value is “suppressed”.

Question: And the “cell death without H2O2 treatment” value ([2]; opg −/− SGCs, no H2O2)?
Answer: Its value is “did not significantly affect”.

Question: What about the “H2O2 induced oxidative cell death” value [2] of the same molecule?
Answer: The value was “rescued”.

Question: And the “TRAIL induced cleaved caspase 3 (cell death)” value (Schwann cells)?
Answer: Its value is “suppressed”.

Question: And the “TRAIL induced ERK phosphorylation / ERK activation” value (ERK kinase [3])?
Answer: The value was “suppressed”.

Question: And the “proliferation of opg−/− spheres (number of BrdU positive cells)” value (opg −/− spheres [4])?
Answer: The value was “significantly enhanced; also recorded: increased”.

Question: What about the “apoptosis in opg−/− spheres” value (opg −/− spheres [5]) of the same molecule?
Answer: The value was “reduced; also recorded: decreased”.

B2: TRAIL: TNF-related apoptosis-inducing ligand, recombinant (protein, UniProt P50591 1-281, looked up)
Tumor necrosis factor ligand …: MAMMEVQGGPSLGQTCVLIVIFTVLLQSLCVAVTYVYFTNELKQMQDKYSKSGIACFLKEDDSYWDPNDEESMNSPCWQVKWQLRQLVRKMILRTSEETISTVQEKQQNISPLVRERGPQRVAAHITGTRGRSNTLSSPNSKNEKALGRKINSWESSRSGHSFLSNLHLRNGELVIHEKGFYYIYSQTYFRFQEEIKENTKNDKQMVQYIYKYTSYPDPILLMKSARNSCWSKDAEYGLYSIYQGGIFELKENDRIFVSVTNEHLIDMDHEASFFGAFLVG
Question: Which “cleavage of caspase 3 / cell death caused by TRAIL itself” value (Schwann cells; Schwann cells treated with recombinant TRAIL (100 ng/ml)) does the source give for B2 here?
Answer: Its value is “increased; also recorded: induced cell death”.

Question: And the “ERK phosphorylation caused by TRAIL itself” value (ERK kinase [3]; cells treated with TRAIL (100 ng/ml))?
Answer: The value was “activated”.

Question: What about the “p38, JNK or NF-κB p65 activity after TRAIL” value (p38, JNK or NF-κB p65) of the same molecule?
Answer: The value was “did not affect”.

B3: RANKL: RANK ligand, from R & D Systems (protein, UniProt O14788 140-317, looked up)
Tumor necrosis factor ligand …: IRAEKAMVDGSWLDLAKRSKLEAQPFAHLTINATDIPSGSHKVSLSSWYHDRGWAKISNMTFSNGKLIVNQDGFYYLYANICFRHHETSGDLATEYLQLMVYVTKTSIKIPSSHTLMKGGSTKYWSGNSEFHFYSINVGGFFKLRSGEEISIEVSNPSLLDPDQDATYFGAFKVRDID
Question: Which “apoptosis in opg−/− spheres” value (opg −/− spheres [5]) does the source give for B3 here?
Answer: The value was “significantly increased”.

Question: What about the “apoptosis in opg−/− spheres” value (opg −/− spheres [5]; listed as Rankl) of the same molecule?
Answer: The value was “increased”.

— patent US9670288B2, “Osteoprotegerin in neuroprotection” (Massachusetts Eye and Ear Infirmary, priority 2011, dated 2017)
